# B1: T4 Dda-E94C/C109A/C136A/A360C (SEQ ID NO: 24 with mutations E94C/C109A/C136A/A360C) (protein)
# chain: MTFDDLTEGQKNAFNIVMKAIKEKKHHVTINGPAGTGKTTLTKFIIEALISTGETGIILAAPTHAAKKILSKLSGKEASTIHSILKINPVTYECNVLFEQKEVPDLAKARVLICDEVSMYDRKLFKILLSTIPPWATIIGIGDNKQIRPVDPGENTAYISPFFTHKDFYQCELTEVKRSNAPIIDVATDVRNGKWIYDKVVDGHGVRGFTGDTALRDFMVNYFSIVKSLDDLFENRVMAFTNKSVDKLNSIIRKKIFETDKDFIVGEIIVMQEPLFKTYKIDGKPVSEIIFNNGQLVRIIEAEYTSTFVKARGVPGEYLIRHWDLTVETYGDDEYYREKIKIISSDEELYKFNLFLGKTCETYKNWNKGGKAPWSDFWDAKSQFSKVKALPASTFHKAQGMSVDRAFIYTPCIHYADVELAQQLLYVGVTRGRYDVFYV
# Experiments:
# [1] = molecular target: MspA-((Del-F80/S81/G112/V13)D56N/E59R/G75S/G77S/L88N/D90N/D91N/D118R/Q126R/D134R/E139K)8
# [2] = molecular target: MspA-((Del-L74/G75/D118/L119)E59N/L88N/D90N/D91N/Q126R/D134R/E139K)8
# [3] = molecular target: MspA-((Del-L74/G75/D118/L119)D56N/E59Y/L88N/D90N/D91N/Q126R/D134R/E139K)8
# [4] = molecular target: MspA-((Del-L74/G75/D118/L119)D56N/E57N/E59N/L88N/D90N/D91N/Q126R/D134R/E139K)8
# [5] = molecular target: MspA-((Del-L74/G75/D118/L119)E59Y/L88N/D90N/D91N/Q126R/D134R/E139K)8
# [6] = molecular target: MspA-((Del-L74/G75/D118/L119)E59R/L88N/D90N/D91N/Q126R/D134R/E139K)8
# [7] = molecular target: MspA-((Del-L74/G75/D118/L119)D56N/E57D/E59R/L88N/D90N/D91N/Q126R/D134R/E139K)8
# [8] = molecular target: MspA-((Del-L74/G75/D118/L119)D56N/E59R/L88N/D90N/D91N/Q126R/D134N/E139K)8
# [9] = molecular target: MspA-((Del-L74/G75/D118/L119)D56N/E59T/L88N/D90N/D91N/Q126R/D134R/E139K)8
# [10] = molecular target: MspA-((Del-L74/G75/D118/L119)D56L/E59L/L88N/D90N/D91N/Q126R/D134R/E139K)8
# [11] = molecular target: MspA-((Del-L74/G75/D118/L119)D56F/E59R/L88N/D90N/D91N/Q126R/D134R/E139K)8
# [12] = molecular target: MspA-(G75S/G77S/L88N/D90N/D91N/D118R/Q126R/D134R/E139K)8
# [13] = molecular target: MspA-((Del-L74/G75/D118/L119)D56W/E59R/L88N/D90N/D91N/Q126R/D134R/E139K)8
# [14] = molecular target: MspA-(D56N/E59R/G75S/G77S/L88N/D90N/D91N/D118R/Q126R/D134R/E139K)8
protein,measurement,setting,value
B1,Average Signal to Noise (S2N),[1],13
same,Mean Current Range,[1],17.1 pA
same,Mean Noise of the Signal,[1],1.32
same,Median Current Range,[1],17.1 pA
same,Median Noise of the Signal,[1],1.22
same,Standard Deviation of the Current Range,[1],2.11 pA
same,Standard Deviation of the Noise of the Signal,[1],0.32
same,Average Signal to Noise (S2N),[2],13.3
same,Mean Current Range,[2],14.7 pA
same,Mean Noise of the Signal,[2],1.11
same,Median Current Range,[2],14.7 pA
same,Median Noise of the Signal,[2],1.08
same,Standard Deviation of the Current Range,[2],2.36 pA
same,Standard Deviation of the Noise of the Signal,[2],0.19
same,Average Signal to Noise (S2N),[3],10.7
same,Mean Current Range,[3],15.9 pA
same,Mean Noise of the Signal,[3],1.48
same,Median Current Range,[3],15.9 pA
same,Median Noise of the Signal,[3],1.43
same,Median S2N,[3],10.4
same,Percentage of complement slipping forwards,[3],0.3%
same,Standard Deviation of S2N,[3],0.66
same,Standard Deviation of the Current Range,[3],1.92 pA
same,Standard Deviation of the Noise of the Signal,[3],0.24
same,slips forward per kilobase,[3],less than 5 slips forward per kilobase
same,Average Signal to Noise (S2N),[4],13
same,Mean Current Range,[4],19 pA
same,Mean Noise of the Signal,[4],1.46
same,Median Current Range,[4],19.2 pA
same,Median Noise of the Signal,[4],1.35
same,Standard Deviation of the Current Range,[4],2.07 pA
same,Standard Deviation of the Noise of the Signal,[4],0.36
same,Average Signal to Noise (S2N),[5],11
same,Mean Current Range,[5],15 pA
same,Mean Noise of the Signal,[5],1.36
same,Median Current Range,[5],14.9 pA
same,Median Noise of the Signal,[5],1.32
same,Median S2N,[5],11.9
same,Percentage of complement slipping forwards,[5],0.27%
same,Standard Deviation of S2N,[5],1.17
same,Standard Deviation of the Current Range,[5],1.72
same,Standard Deviation of the Noise of the Signal,[5],0.23
same,Average Signal to Noise (S2N),[6],12.8
same,Mean Current Range,[6],16.1 pA
same,Mean Noise of the Signal,[6],1.26
same,Median Current Range,[6],16.2 pA
same,Median Noise of the Signal,[6],1.22
same,Standard Deviation of the Current Range,[6],1.84 pA
same,Standard Deviation of the Noise of the Signal,[6],0.24
same,Average Signal to Noise (S2N),[7],12.9
same,Mean Current Range,[7],15.4 pA
same,Mean Noise of the Signal,[7],1.19
same,Median Current Range,[7],15.4 pA
same,Median Noise of the Signal,[7],1.16
same,Median S2N,[7],11.9
same,Percentage of complement slipping forwards,[7],0.7%
same,Standard Deviation of S2N,[7],0.33
same,Standard Deviation of the Current Range,[7],1.77 pA
same,Standard Deviation of the Noise of the Signal,[7],0.19
same,Average Signal to Noise (S2N),[8],12.2
same,Mean Current Range,[8],16 pA
same,Mean Noise of the Signal,[8],1.31
same,Median Current Range,[8],16.1 pA
same,Median Noise of the Signal,[8],1.27
same,Median S2N,[8],12
same,Percentage of complement slipping forwards,[8],0.65%
same,Standard Deviation of S2N,[8],0.57
same,Standard Deviation of the Current Range,[8],1.93 pA
same,Standard Deviation of the Noise of the Signal,[8],0.21
same,Average Signal to Noise (S2N),[9],12.3
same,Mean Current Range,[9],16 pA
same,Mean Noise of the Signal,[9],1.31
same,Median Current Range,[9],16.1 pA
same,Median Noise of the Signal,[9],1.26
same,Median S2N,[9],12.6
same,Percentage of complement slipping forwards,[9],0.8%
same,Standard Deviation of S2N,[9],0.87
same,Standard Deviation of the Current Range,[9],1.87 pA
same,Standard Deviation of the Noise of the Signal,[9],0.24
same,slips forward per kilobase,[10],less than 5 slips forward per kilobase
same,Average Signal to Noise (S2N),[11],11.7
same,Mean Current Range,[11],15.6 pA
same,Mean Noise of the Signal,[11],1.33
same,Median Current Range,[11],15.6 pA
same,Median Noise of the Signal,[11],1.28
same,Median S2N,[11],12.3
same,Percentage of complement slipping forwards,[11],0.38%
same,Standard Deviation of S2N,[11],0.59
same,Standard Deviation of the Current Range,[11],1.92 pA
same,Standard Deviation of the Noise of the Signal,[11],0.24
same,slips forward per kilobase,[11],less than 5 slips forward per kilobase
same,Average Signal to Noise (S2N),[12],11.4
same,Mean Current Range,[12],15.5 pA
same,Mean Noise of the Signal,[12],1.35
same,Median Current Range,[12],15.8 pA
same,Median Noise of the Signal,[12],1.35
same,Standard Deviation of the Current Range,[12],2.23
same,Standard Deviation of the Noise of the Signal,[12],0.14
same,Average Signal to Noise (S2N),[13],10.7
same,Mean Current Range,[13],14.4 pA
same,Mean Noise of the Signal,[13],1.35
same,Median Current Range,[13],14.3 pA
same,Median Noise of the Signal,[13],1.28
same,Median S2N,[13],11.9
same,Percentage of complement slipping forwards,[13],0.25%
same,Standard Deviation of S2N,[13],0.33
same,Standard Deviation of the Current Range,[13],1.79
same,Standard Deviation of the Noise of the Signal,[13],0.26
same,Average Signal to Noise (S2N),[14],11.9
same,Mean Current Range,[14],15.6 pA
same,Mean Noise of the Signal,[14],1.31
same,Median Current Range,[14],15.6 pA
same,Median Noise of the Signal,[14],1.24
same,Standard Deviation of the Current Range,[14],1.76
same,Standard Deviation of the Noise of the Signal,[14],0.26
